{"source": "patent US20030144176", "key": {"[1]": {"biological_target": "GST-ERK5KMΔ, a truncated, catalytically inactive form of ERK5 with lysine-83 mutated to methionine, fused to glutathione-S-transferase"}, "[2]": {"biological_target": "glutathione-S-transferase (GST) fused to MEF2C amino acids 204-321"}}}
{"protein": "HA-tagged activated MEK5 (MEK5DD), MEK5β splice isoform with aspartate substitutions of serine-222 and threonine-226 (protein) MEQQVNGQLIEPLQIFPRACKPPGERNIHGLKVNTRAGPSQHTSPVVSDSLPSNSLKKSSAELRKILANGQMNEQDIRYRDTLGHGNGGTVYKAYHVPSGKILAVKVILLDITLELQKQIMSELEILYKCDSSYIIGFYGAFFVENRISICTEFMDGGSLDVYRKIPEHVLGRIAVAVVKGLTYLWSLKILHRDVKPSNMLVNTSGQVKLCDFGVSTQLVNDIAKDYVGTNAYMAPERISGEQYGIHSDVWSLGISFMELALGRFPYPQIQKNQGSLMPLQLLQCIVDEDSPVLPLGEFSEPFVHFITQCMRKQPKERPAPEELMGHPFIVQFNDGNATVVSMWVCRALEERRSQQGPP", "values": [{"measurement": "IP kinase assay: 32P phosphorylation of GST-ERK5KM substrate by immunoprecipitated HA-MEK5", "setting": "[1]", "value": "AdMEK5DD produced a constitutively active kinase"}]}
{"protein": "HA-tagged wild-type MEK5 (MEK5WT), MEK5β splice isoform (protein) MEQQVNGQLIEPLQIFPRACKPPGERNIHGLKVNTRAGPSQHTSPVVSDSLPSNSLKKSSAELRKILANGQMNEQDIRYRDTLGHGNGGTVYKAYHVPSGKILAVKVILLDITLELQKQIMSELEILYKCDSSYIIGFYGAFFVENRISICTEFMDGGSLDVYRKIPEHVLGRIAVAVVKGLTYLWSLKILHRDVKPSNMLVNTSGQVKLCDFGVSTQLVNSIAKTYVGTNAYMAPERISGEQYGIHSDVWSLGISFMELALGRFPYPQIQKNQGSLMPLQLLQCIVDEDSPVLPLGEFSEPFVHFITQCMRKQPKERPAPEELMGHPFIVQFNDGNATVVSMWVCRALEERRSQQGPP", "values": [{"measurement": "IP kinase assay: 32P phosphorylation of GST-ERK5KM substrate by immunoprecipitated HA-MEK5", "setting": "[1]", "value": "Some kinase activity was also observed with the AdMEK5WT virus"}]}
{"protein": "endogenous ERK5 immunoprecipitated from neonatal rat cardiomyocytes (protein) AEPLKEEDGEDGSGEPPGRVKAEPVHTAASVVAKNLALLKARSFDVTFDVGDEYEIIETIGNGAYGVVSSARRRLTGQQVAIKKIPNAFDVVTNAKRTLRELKILKHFKHDNIIAIKDILRPTVPYGEFRSVYVVLDLMESDLHQIIHSSQPLTLEHVRYFLYQLLRGLKYMHSAQVIHRDLKPSNLLVNENCELKIGDFGMARGLCTSPAEHQYFMTEYVATRWYRAPELMLSLHEYTQAIDLWSVGCIFGEMLARRQLFPGKNYVHQLQLIMMVLGTPSPAVIQAVGAERVRAYIQSLPPRQPVPWETVYPGADRQALSLLGRMLRFEPSARISAAAALRHPFLAKYHDPDDEPDCAPPFDFAFDREALTRERIKEAIVAEIEDFHARREGIRQQIRFQPSLQPVASEPVCPDVEMPSPWAPSGDCAMESPPPALPPCSGPAPDTVDLTLQPAPPASELAPPKREGAISDNTKAALKAALLKSLRSRLRDGPSAPLEAPEPRKPVTAQERQREREEKRRRRQERAKEREKRRQERERKERGAGTLGGPSTDPLAGLVLSDNDRSLLERWTRMARPPVPAPAPAPAPTPKPSSAQPTSPPNGPVSQSTAPLQPAGSIPGPASQPVCPPPGPVPQPAGPVPAPLQTAPSTSLLASQSLVPPSGLPGSGAPEVLPYFPSGPPPPDPGLTPQPSTSESPDVNLVTQQLSKSQVEDPLPPVFSGTPKGSGAGYGVGFDLEEFLNQSFDMGVADGPQDGQADSASLSASLLADWLEGHGMNPADIESLQREIQMDSPMLLSDLPDLQEP", "values": [{"measurement": "ERK5 immunoprecipitation (IP) kinase assay: 32P phosphorylation of GST-MEF2C", "setting": "[2]", "value": "Phosphorylation of GST-MEF2C indicated that ERK5 was activated 2-4 fold by hypertrophic agents"}]}
